B1: SH3 and PX domain-containing protein 2B, residues 155 to 209; numbered along this chain, A1X283 (parent)
chain: EQYVVVANYQKQESSEISLSVGQVVDIIEKNESGWWFVSTAEEQGWVPATCLEGQ

Variants of: B1
Experiment: abundance fitness (aPCA) (normalised: wild type 0, dead -1); higher = more abundant; growth selection in yeast, the domain comes from the species named
Conditions: Homo sapiens

Abundance fitness: each site, then its substitutions
W46: R -0.17 | F -0.036 | K -0.273 | E -0.91 | T -0.437
S14: V 0.014 | W -0.171 | C -0.018
S15: L -0.27 | Y -0.092 | E -0.172 | C -0.063 | W -0.049 | I -0.201 | D 0.02 | P -0.121
F37: M -0.069 | L 0.03 | E -0.237
I17: D -0.889 | A -0.201 | M -0.053 | C 0.014
G54: K -0.231 | Q 0.121 | E 0.11 | I 0.079 | T -0.069 | L 0.07 | P -0.112 | M -0.098 | C -0.04
S33: V -0.212 | K 0.058 | C -0.266 | T -0.086 | D 0.095 | I -0.393 | Q 0.074 | Y -0.074
A41: L -0.041 | Q -0.133 | K -0.157 | G -0.122 | V -0.127 | I 0.045
Y3: V -0.073 | N -0.268 | T -0.06 | K -0.035 | A 0.106 | L -0.237 | S 0.039 | E -0.114 | F -0.053
V38: C -0.298 | Y -0.921 | W -1.02 | I -0.319 | G -0.363 | R -0.963
E29: W -0.097 | D -0.104 | F -0.691 | I 0.133 | N 0.021 | G -0.19 | C -0.205
V5: M -0.418 | T -0.309 | E -0.939 | Q -0.994
S39: R -0.009 | L -0.329 | E 0.013 | A -0.08 | V -0.414 | F -0.241 | G -0.107 | W -0.371
K30: Q -0.027 | T -0.008 | G -0.398
E43: T -0.033 | R -0.111 | V -0.093 | M -0.117 | F -0.265 | H -0.021 | S 0.033
E53: I -0.289 | R -0.064 | H -0.138 | Y -0.252 | D -0.073 | F -0.33 | Q 0.027 | C -0.14 | G -0.008 | L -0.2 | V -0.128
S18: I -0.528 | F -0.157
Q2: P -0.068 | K -0.062 | I -0.347 | L -0.189 | R -0.167 | G -0.082
V24: G -0.157 | N 0.001 | T -0.109 | C -0.035 | E 0.027 | H -0.284 | A -0.008 | I -0.026 | P -0.135 | R -0.135 | W -0.075
L19: P -0.831
S20: T -0.055 | R -0.082 | V -0.077 | G -0.239 | H -0.01
E16: S -0.177 | N -0.2 | T -0.178 | M -0.449 | D -0.211 | Q -0.008 | A -0.312 | I -0.692
G45: K -0.547 | W -0.919 | P -1.19 | N -0.95 | T -0.683 | F -0.744
Q12: R -0.066 | F 0.001 | D -0.241 | E -0.195 | C -0.228 | G -0.14 | K 0.013 | N -0.183
A49: M 0.003 | V -0.207 | F -0.139 | N 0.02 | Q -0.327 | G -0.016 | C 0.045 | W -0.586
I28: F -0.214 | V 0.027 | E -0.475 | T -0.116 | M -0.125 | C -0.13
W35: V -0.118 | T -0.191 | P -0.621 | R 0.045 | Q 0.04

— the Human Domainome abundance scans (Beltran et al. 2025)
